Assay results from US20120088722.

Test system: T1, fluorescence labeled peptide of the protease-sensitive hinge region of LTBP1, REHGARS
T1 sequence: REHGARS

MMP13 catalytic domain (Enzo, Inc)
Km (Michaelis-Menten non-linear fit, digest of fluorescence labeled hinge substrate): Km=1.628e-016
